Measurements reported in the supplement of paper PMC9233669.
Variants at the floor of the assay were thinned out.

How the values were obtained:
biotinyl-Val-oxazolone = experiment: self-aminoacylation, catalytic enhancement (BVO) (fold over background); higher = more active; k-Seq, kA / k0A0; sequences stand for … in GGGAAUGGAUCCACAUCUACGAAUUC…UUCACUGCAGACUUGACGAAGCUG
Outline: (§1)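 Each biotinyl-aminoacyl-oxazolone, at 2–1250 μM, was incubated with mutagenized RNA pools (0.43 μM) carrying a 21-nt variable region. The 50 μL reactions contained HEPES/NaCl/KCl/MgCl2/CaCl2 buffer with 5% acetonitrile at pH 6.9–7.0 and ran for 90 minutes at room temperature. After streptavidin capture, RNA was measured by qPCR in triplicate and by Illumina sequencing, and catalytic enhancement was calculated as median kA over the uncatalyzed rate from a pseudo-first-order fit of per-sequence fraction reacted.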

biotinyl-Phe-oxazolone = experiment: self-aminoacylation, catalytic enhancement (BFO) (fold over background); higher = more active; k-Seq, kA / k0A0; sequences stand for … in GGGAAUGGAUCCACAUCUACGAAUUC…UUCACUGCAGACUUGACGAAGCUG
Outline: as §1

biotinyl-Leu-oxazolone = experiment: self-aminoacylation, catalytic enhancement (BLO) (fold over background); higher = more active; k-Seq, kA / k0A0; sequences stand for … in GGGAAUGGAUCCACAUCUACGAAUUC…UUCACUGCAGACUUGACGAAGCUG
Outline: as §1

biotinyl-Met-oxazolone = experiment: self-aminoacylation, catalytic enhancement (BMO) (fold over background); higher = more active; k-Seq, kA / k0A0; sequences stand for … in GGGAAUGGAUCCACAUCUACGAAUUC…UUCACUGCAGACUUGACGAAGCUG
Outline: as §1

biotinyl-Ile-oxazolone = experiment: self-aminoacylation, catalytic enhancement (BIO) (fold over background); higher = more active; k-Seq, kA / k0A0; sequences stand for … in GGGAAUGGAUCCACAUCUACGAAUUC…UUCACUGCAGACUUGACGAAGCUG
Outline: as §1

biotinyl-Trp-oxazolone = experiment: self-aminoacylation, catalytic enhancement (BWO) (fold over background); higher = more active; k-Seq, kA / k0A0; sequences stand for … in GGGAAUGGAUCCACAUCUACGAAUUC…UUCACUGCAGACUUGACGAAGCUG
Outline: as §1

Row | Sequence | self-aminoacylation (biotinyl-Val-oxazolone) | self-aminoacylation (biotinyl-Phe-oxazolone) | self-aminoacylation (biotinyl-Leu-oxazolone) | self-aminoacylation (biotinyl-Met-oxazolone) | self-aminoacylation (biotinyl-Ile-oxazolone) | self-aminoacylation (biotinyl-Trp-oxazolone)
1 | CAGUUUGCUAAUAGUCGCACG [Fam3.1 aminoacylation ribozyme variant] | 1.05 | 1.25 | 1.35 | 1.1 | 1.3 | 1.46
2 | CAGUUUGCUAAUAGUUGCAAG [Fam3.1 aminoacylation ribozyme variant] | 1.23 | 1.55 | 1.5 | 1.44 | 1.53 | 1.18
3 | CAGUUUGCUAUUAGUCGCAAG [Fam3.1 aminoacylation ribozyme variant] | 1.22 | 1.88 | 1.5 | 1.25 | 1.24 | 1.29
4 | CCAAACCUCAAGCAAUCGGUC [Fam1B.1 aminoacylation ribozyme variant] | 1.29 | 1.54 | 1.27 | 1.12 | 1.35 | 1.22
5 | CCAAACUUCAAACAAUCGGUC [Fam1B.1 aminoacylation ribozyme variant] | 1.52 | 86.6 | 2.21 | 1.53 | 1.35 | 42
6 | CCAAACUUCAAGCAAACGGUC [Fam1B.1 aminoacylation ribozyme variant] | 0.846 | 0.911 | 0.607 | 0.699 | 0.832 | 0.811
7 | CCAAACUUCAAGCAAUUGGUC [Fam1B.1 aminoacylation ribozyme variant] | 0.828 | 1.1 | 0.767 | 0.81 | 0.759 | 0.886
8 | CCAAACUUCAAGCCAUCGGUC [Fam1B.1 aminoacylation ribozyme variant] | 1.18 | 1.07 | 1.03 | 1.28 | 1.15 | 1.01
9 | CCAAACUUCAAGCGAUCGGUC [Fam1B.1 aminoacylation ribozyme variant] | 1.35 | 1.09 | 1.32 | 1.11 | 1.1 | 1.25
10 | CCAAACUUUAAGCAAUCGGUC [Fam1B.1 aminoacylation ribozyme variant] | 0.993 | 0.824 | 0.846 | 0.869 | 1.11 | 0.664
11 | CCACAAUGCAAGCAAUCGGUC [Fam1B.1 aminoacylation ribozyme variant] | 1.41 | 1.02 | 1.01 | 1.22 | 1.48 | 0.93
12 | CCACAAUUCAAGAAAUCGGUC [Fam1B.1 aminoacylation ribozyme variant] | 0.906 | 1.38 | 0.866 | 0.78 | 0.949 | 1.41
13 | CCACACAGCAAGCAAUCGGUC [Fam1B.1 aminoacylation ribozyme variant] | 1.11 | 1.35 | 0.787 | 0.699 | 0.864 | 0.608
14 | CCACACAUCAAGCAAGCGGUC [Fam1B.1 aminoacylation ribozyme variant] | 1.03 | 0.546 | 0.901 | 0.779 | 0.968 | 0.988
15 | CCACACAUCAAGCAAUCGGUG [Fam1B.1 aminoacylation ribozyme variant] | 3.26 | 31.6 | 6.65 | 4.98 | 3.27 | 5.14
16 | CCACACAUCAAGCACUCGGUC [Fam1B.1 aminoacylation ribozyme variant] | 1.18 | 0.805 | 0.724 | 1.02 | 0.935 | 0.94
17 | CCACACAUCUAGCAAUCGGUC [Fam1B.1 aminoacylation ribozyme variant] | 0.93 | 0.911 | 0.712 | 0.797 | 0.894 | 0.615
18 | CCACACCUCAACCAAUCGGUC [Fam1B.1 aminoacylation ribozyme variant] | 1.02 | 3.45 | 1.28 | 1.37 | 1.11 | 3.13
19 | CCACACCUCAAGCAAGCGGUC [Fam1B.1 aminoacylation ribozyme variant] | 1.21 | 1.27 | 0.921 | 1.02 | 1.34 | 1.32
20 | CCACACCUCAAGCAAUCGGUC [Fam1B.1 aminoacylation ribozyme variant] | 1.15 | 2.37 | 0.908 | 0.862 | 1.03 | 1.56
21 | CCACACCUCAAGCGAUCGGUC [Fam1B.1 aminoacylation ribozyme variant] | 1.73 | 1.09 | 1.69 | 1.33 | 1.31 | 1.5
22 | CCACACCUCCAGCAAUCGGUC [Fam1B.1 aminoacylation ribozyme variant] | 1.4 | 1.64 | 1.15 | 1.27 | 1.69 | 1.19
23 | CCACACGUCAAGAAAUCGGUC [Fam1B.1 aminoacylation ribozyme variant] | 1.44 | 1.01 | 1.28 | 1.17 | 1.28 | 0.951
24 | CCACACGUCAAGCAAUCUGUC [Fam1B.1 aminoacylation ribozyme variant] | 0.543 | 0.326 | 0.422 | 0.472 | 0.54 | 0.24
25 | CCACACGUCAAGCACUCGGUC [Fam1B.1 aminoacylation ribozyme variant] | 2.17 | 2.16 | 1.23 | 1.13 | 1.17 | 1.1
26 | CCACACGUCUAGCAAUCGGUC [Fam1B.1 aminoacylation ribozyme variant] | 1.15 | 0.972 | 0.937 | 0.9 | 1.01 | 0.768

Row | Sequence | self-aminoacylation (biotinyl-Val-oxazolone) | self-aminoacylation (biotinyl-Phe-oxazolone) | self-aminoacylation (biotinyl-Leu-oxazolone) | self-aminoacylation (biotinyl-Met-oxazolone) | self-aminoacylation (biotinyl-Ile-oxazolone) | self-aminoacylation (biotinyl-Trp-oxazolone)
27 | CCACACUACAAGCAAUGGGUC [Fam1B.1 aminoacylation ribozyme variant] | 0.842 | 0.762 | 0.511 | 0.778 | 0.72 | 0.735
28 | CCACACUAGAAGCAAUCGGUC [Fam1B.1 aminoacylation ribozyme variant] | 0.961 | 0.713 | 0.954 | 0.747 | 0.809 | 0.873
29 | CCACACUCCAAGCAAUCGCUC [Fam1B.1 aminoacylation ribozyme variant] | 2.56 | 0.753 | 1.38 | 1.29 | 1.92 | 2.47
30 | CCACACUCCAAGCAAUCGGAC [Fam1B.1 aminoacylation ribozyme variant] | 0.937 | 0.729 | 1.37 | 0.74 | 1.09 | 0.574
31 | CCACACUCCAAGCAAUCGGUG [Fam1B.1 aminoacylation ribozyme variant] | 4.45 | 59.9 | 9.97 | 7.47 | 4.43 | 6.72
32 | CCACACUCCACGCAAUCGGUC [Fam1B.1 aminoacylation ribozyme variant] | 1.62 | 0.759 | 1.2 | 1 | 1.51 | 1.18
33 | CCACACUCCCAGCAAUCGGUC [Fam1B.1 aminoacylation ribozyme variant] | 1.59 | 0.634 | 1.6 | 1.41 | 1.65 | 1.02
34 | CCACACUCUAAGCAAUCGGUC [Fam1B.1 aminoacylation ribozyme variant] | 1.06 | 1.04 | 0.683 | 0.69 | 0.985 | 0.903
35 | CCACACUGCAAGAAAUCGGUC [Fam1B.1 aminoacylation ribozyme variant] | 1.72 | 1.29 | 1.51 | 1.12 | 1.51 | 1.51
36 | CCACACUGCAAGCAAUAGGUC [Fam1B.1 aminoacylation ribozyme variant] | 0.907 | 1.15 | 0.915 | 0.777 | 0.905 | 0.601
37 | CCACACUGCAAGCAAUCGCUC [Fam1B.1 aminoacylation ribozyme variant] | 2.35 | 16 | 2.4 | 2.1 | 2.73 | 1.78
38 | CCACACUGCAAGCAAUCGGUA [Fam1B.1 aminoacylation ribozyme variant] | 2.25 | 0.894 | 2.11 | 2.16 | 2.19 | 2.33
39 | CCACACUUAAAGCAAUCGGCC [Fam1B.1 aminoacylation ribozyme variant] | 1.97 | 7.34 | 2.15 | 1.71 | 1.72 | 1.7
40 | CCACACUUAAAGCAUUCGGUC [Fam1B.1 aminoacylation ribozyme variant] | 1.58 | 1.03 | 1.29 | 1.17 | 1.63 | 1.15
41 | CCACACUUAAAGCGAUCGGUC [Fam1B.1 aminoacylation ribozyme variant] | 1.18 | 0.793 | 1 | 0.963 | 1.23 | 0.934
42 | CCACACUUAAAUCAAUCGGUC [Fam1B.1 aminoacylation ribozyme variant] | 0.914 | 0.699 | 0.787 | 0.589 | 0.829 | 0.868
43 | CCACACUUAAGGCAAUCGGUC [Fam1B.1 aminoacylation ribozyme variant] | 0.981 | 0.764 | 1.03 | 0.983 | 1.15 | 1.25
44 | CCACACUUAAUGCAAUCGGUC [Fam1B.1 aminoacylation ribozyme variant] | 0.763 | 0.949 | 0.693 | 0.752 | 0.855 | 0.642
45 | CCACACUUAUAGCAAUCGGUC [Fam1B.1 aminoacylation ribozyme variant] | 0.927 | 0.926 | 0.722 | 0.667 | 1 | 0.886
46 | CCACACUUCAACCAAUCAGUC [Fam1B.1 aminoacylation ribozyme variant] | 1.04 | 28.8 | 1.04 | 0.804 | 0.978 | 9.75
47 | CCACACUUCAACCAAUCUGUC [Fam1B.1 aminoacylation ribozyme variant] | 0.607 | 0.77 | 0.377 | 0.419 | 0.426 | 0.369
48 | CCACACUUCAAGAAAUCGCUC [Fam1B.1 aminoacylation ribozyme variant] | 1.05 | 0.492 | 0.886 | 1.14 | 1.13 | 0.881
49 | CCACACUUCAAGAAAUCGGUG [Fam1B.1 aminoacylation ribozyme variant] | 3.53 | 55.3 | 10.6 | 6.53 | 4.82 | 8.37
50 | CCACACUUCAAGCAAACGGUG [Fam1B.1 aminoacylation ribozyme variant] | 3.33 | 10.7 | 5.1 | 3.91 | 3.12 | 4.31
51 | CCACACUUCAAGCAACCGGCC [Fam1B.1 aminoacylation ribozyme variant] | 3.58 | 17.4 | 2.77 | 4.29 | 3.66 | 5.33
